Assay results taken from patent US20240132578A1.

What was measured:
Assay in all cases: cell-based or functional assay
[1] = biological target: HIV-1 Env of pseudovirus MGRM-F1-018 (HIV-1)
[2] = biological target: HIV-1 Env of isolate MG RM-A-011 (pseudovirus) (HIV-1)
[3] = biological target: HIV-1 Env of isolate MG RM-A-013 (pseudovirus) (HIV-1)
[4] = biological target: HIV-1 Env of isolate MGRM-D-002 (HIV-1)
[5] = biological target: HIV-1 Env of isolate MGRM-G-014 (subtype G) (HIV-1)
[6] = biological target: HIV-1 Env of pseudovirus isolate MGRM-Chronic-B-001 (clade B) (HIV-1)
[7] = biological target: HIV-1 Env of pseudovirus isolate MGRM-Chronic-B-004 (clade B) (HIV-1)
[8] = biological target: HIV-1 Env of isolate 92TH021 (subtype AE) (HIV-1)
[9] = biological target: HIV-1 Env of isolate MGRM-A-008 (subtype A) (HIV-1)
[10] = biological target: HIV-1 Env of isolate MGRM-AG-008 (subtype AG) (HIV-1)
[11] = biological target: HIV-1 Env of isolate MGRM-C-004 (HIV-1)
[12] = biological target: HIV-1 Env of isolate MGRM-D-013 (pseudovirus) (HIV-1)
[13] = biological target: HIV-1 JR-CSF Env D417A (HIV-1 (isolate JR-CSF)) (UniProt P20871)
[14] = biological target: HIV-1 JR-CSF Env I414A (HIV-1 (isolate JR-CSF)) (UniProt P20871)
[15] = biological target: HIV-1 JR-CSF Env T303A (HIV-1 (isolate JR-CSF, clade B)) (UniProt P20871)
[16] = biological target: HIV-1 JR-CSF Env T394A (HIV-1 (isolate JR-CSF)) (UniProt P20871)
[17] = biological target: HIV-1 JR-CSF Env T413A (HIV-1 (isolate JR-CSF)) (UniProt P20871)
[18] = biological target: HIV-1 JR-CSF Env W395A (HIV-1 (isolate JR-CSF)) (UniProt P20871)
HIV-1 APV6 Env (HIV-1) = biological target: HIV-1 APV6 Env (HIV-1)
[19] = biological target: HIV-1 Env of isolate MGRM-AE-007 (pseudovirus) (HIV-1)
[20] = biological target: HIV-1 Env of isolate MGRM-F1-020 (pseudovirus) (HIV-1)
[21] = biological target: HIV-1 envelope glycoprotein (Env) of isolate CAAN.A2, on pseudovirus (HIV-1)
[22] = biological target: HIV-1 envelope glycoprotein (Env) of isolate MG RM-A-005, subtype A (HIV-1)
[23] = biological target: HIV-1 envelope glycoprotein (Env) of isolate MGRM-Chronic-B-002, on pseudovirus (HIV-1)
[24] = biological target: HIV-1 envelope glycoprotein (Env) of isolate MGRM-Chronic-B-003, on pseudovirus (HIV-1)
[25] = biological target: HIV-1 envelope glycoprotein (Env) of isolate MGRM-Chronic-B-017, on pseudovirus (HIV-1)
[26] = biological target: HIV-1 envelope glycoprotein (Env) of isolate TRO.11, on pseudovirus (HIV-1)
[27] = biological target: HIV-1 92TH021 Env (pseudovirus) (HIV-1)

Row | Substance | IC50, pseudovirus neutralization [1] [mg/L] | IC50 (µg/mL), single-round pseudovirus neutralization [2] [µg/mL] | IC50 (µg/mL), single-round pseudovirus neutralization [3] [µg/mL] | IC50 (µg/mL), pseudovirus neutralization [4] [µg/mL] | IC50 (µg/mL), pseudovirus neutralization [5] [µg/mL] | IC50, pseudovirus neutralization [6] [mg/L] | IC50, pseudovirus neutralization [7] [mg/L] | Fold IC50 increase relative to wild-type (pseudovirus neutralization) [13] [fold] | Fold IC50 increase relative to wild-type (pseudovirus neutralization) [14] [fold] | Fold IC50 increase relative to wild-type [15] [fold] | Fold IC50 increase relative to wild-type (pseudovirus neutralization) [16] [fold] | Fold IC50 increase relative to wild-type (pseudovirus neutralization) [17] [fold] | Fold IC50 increase relative to wild-type (pseudovirus neutralization) [18] [fold] | further results
1 | PGT-141 (4964_G22; 4993_K13) (antibody) | 0.785 |  |  |  |  |  |  |  |  |  |  |  |  | 
2 | PGT-145 (4995_P16) (antibody) | 1.02 |  |  |  |  |  |  |  |  |  |  |  |  | 
3 | VRC01 (antibody) | 0.032 | 0.273 | 0.152 | 0.252 | 0.056 | 0.066 | 0.055 |  |  |  |  |  |  | 
4 | 4995_P16 (PGT-145) (antibody) |  | 0.484 | 1.76 | > 50 | 0.144 | 3.22 | 0.023 |  |  |  |  |  |  | 
5 | 5136_H01 (PGT-131) (antibody) |  |  |  |  |  |  |  | 1 | 1 | > 170 | 0.9 | 0.6 | 0.5 | IC50, pseudovirus neutralization [8]: 0.014 mg/L; IC50, pseudovirus neutralization [9]: > 50 mg/L; IC50, pseudovirus neutralization [10]: > 50 mg/L; IC50 (µg/mL), pseudovirus neutralization [11]: 3.71 µg/mL; IC50 (µg/mL), pseudovirus neutralization [12]: 4.14 µg/mL
6 | 5141_B17 (PGT-126) (antibody) |  |  |  |  |  |  |  | 1 | 0.4 | > 250 | 0.6 | 0.7 | 0.6 | IC50, pseudovirus neutralization (HIV-1 APV6 Env (HIV-1)): 0.0249 mg/L; IC50 (µg/mL), pseudovirus neutralization [19]: > 50 µg/mL; IC50 (µg/mL), pseudovirus neutralization [20]: > 50 µg/mL; IC50, pseudovirus neutralization [21]: 0.273 mg/L; IC50, pseudovirus neutralization [22]: > 50 mg/L; IC50, pseudovirus neutralization [23]: 0.078 mg/L; IC50, pseudovirus neutralization [24]: 0.041 mg/L; IC50, pseudovirus neutralization [25]: > 50 mg/L; IC50, pseudovirus neutralization [26]: 0.041 mg/L
7 | PGT-144 (4970_K22) (antibody) | > 50 |  |  |  |  |  |  |  |  |  |  |  |  | 
8 | 4995_E20 (PGT-142) (antibody) |  | > 50 | 3.77 | > 50 | 0.076 | > 50 | 0.172 |  |  |  |  |  |  | 
9 | 5114_A19 (PGT-128) (antibody) |  |  |  |  |  |  |  | 0.5 | 1.4 | > 500 | 3 | 1 | 0.8 | IC50, pseudovirus neutralization [8]: 0.01 mg/L; IC50, pseudovirus neutralization [9]: > 50 mg/L; IC50, pseudovirus neutralization [10]: 0.668 mg/L; IC50 (µg/mL), pseudovirus neutralization [11]: 0.025 µg/mL; IC50 (µg/mL), pseudovirus neutralization [12]: 8.85 µg/mL
10 | 5123_A06 (PGT-125) (antibody) |  |  |  |  |  |  |  | 0.5 | 0.3 | > 250 | 0.6 | 0.5 | 0.9 | Neutralization by PGT-125, IC50 [27]: 0.0066 mg/L; Neutralization by PGT-125, IC80 [27]: 0.0292 mg/L; Neutralization by PGT-125, IC90 [27]: 0.0701 mg/L; Neutralization by PGT-125, IC95 [27]: 0.157 mg/L; IC50, pseudovirus neutralization (HIV-1 APV6 Env (HIV-1)): 0.0359 mg/L; IC50 (µg/mL), pseudovirus neutralization [19]: 0.876 µg/mL; IC50 (µg/mL), pseudovirus neutralization [20]: > 50 µg/mL; IC50, pseudovirus neutralization [21]: 5.47 mg/L; IC50, pseudovirus neutralization [22]: > 50 mg/L; IC50, pseudovirus neutralization [23]: 0.064 mg/L; IC50, pseudovirus neutralization [24]: 0.157 mg/L; IC50, pseudovirus neutralization [25]: > 50 mg/L; IC50, pseudovirus neutralization [26]: 0.111 mg/L
11 | 4970_K22 (PGT-144) (antibody) |  | > 50 | > 50 | > 50 | 0.562 | > 50 | 9.41 |  |  |  |  |  |  | 
12 | 5343_B08 (PGT-135) (antibody) |  |  |  |  |  |  |  | 5 | 1.2 |  | > 75 | 0.3 | 0.6 | IC50, pseudovirus neutralization [8]: > 50 mg/L; IC50, pseudovirus neutralization [9]: > 50 mg/L; IC50, pseudovirus neutralization [10]: > 50 mg/L; IC50 (µg/mL), pseudovirus neutralization [11]: 0.046 µg/mL; IC50 (µg/mL), pseudovirus neutralization [12]: > 50 µg/mL
13 | PGT-143 (4980_N08) (antibody) | 0.701 |  |  |  |  |  |  |  |  |  |  |  |  | 
14 | 5145_B14 (PGT-127) (antibody) |  |  |  |  |  |  |  | 0.4 | 2.2 | > 500 | 1.6 | 0.8 | 1.6 | IC50 (µg/mL), pseudovirus neutralization [19]: > 50 µg/mL; IC50 (µg/mL), pseudovirus neutralization [20]: > 50 µg/mL; IC50, pseudovirus neutralization [21]: 0.371 mg/L; IC50, pseudovirus neutralization [22]: > 50 mg/L; IC50, pseudovirus neutralization [23]: 0.279 mg/L; IC50, pseudovirus neutralization [24]: 0.12 mg/L; IC50, pseudovirus neutralization [25]: > 50 mg/L; IC50, pseudovirus neutralization [26]: 0.079 mg/L
15 | 4980_N08 (PGT-143) (antibody) |  | > 50 | 9.24 | > 50 | 0.107 | > 50 | 0.395 |  |  |  |  |  |  | 
16 | PGT-142 (4995_E20) (antibody) | 0.404 |  |  |  |  |  |  |  |  |  |  |  |  | 
17 | 5147_N06 (PGT-130) (antibody) |  |  |  |  |  |  |  | 1 | 0.7 | > 250 | 1.2 | 0.6 | 0.6 | IC50, pseudovirus neutralization (HIV-1 APV6 Env (HIV-1)): > 10 mg/L; IC50, pseudovirus neutralization [8]: 0.009 mg/L; IC50, pseudovirus neutralization [9]: > 50 mg/L; IC50, pseudovirus neutralization [10]: > 50 mg/L; IC50 (µg/mL), pseudovirus neutralization [11]: 2.76 µg/mL; IC50 (µg/mL), pseudovirus neutralization [12]: 0.429 µg/mL
18 | 4993_K13 (PGT-141) (antibody) |  | > 50 | 9.86 | > 50 | 0.222 | > 50 | 0.586 |  |  |  |  |  |  | 
